# B1: Pro-free prf.GLFG_(52 × 12) (other)
# chain: GGLFGGATNSQTGGLFGGATNSQTGGLFGGATNSQTGGLFGGATNSQTGGLFGGATNSQTGGLFGGATNSQTGGLFGGATNSQTGGLFGGATNSQTGGLFGGATNSQTGGLFGGATNSQTGGLFGGATNSQTGGLFGGATNSQTGGLFGGATNSQTGGLFGGATNSQTGGLFGGATNSQTGGLFGGATNSQTGGLFGGATNSQTGGLFGGATNSQTGGLFGGATNSQTGGLFGGATNSQTGGLFGGATNSQTGGLFGGATNSQTGGLFGGATNSQTGGLFGGATNSQTGGLFGGATNSQTGGLFGGATNSQTGGLFGGATNSQTGGLFGGATNSQTGGLFGGATNSQTGGLFGGATNSQTGGLFGGATNSQTGGLFGGATNSQTGGLFGGATNSQTGGLFGGATNSQTGGLFGGATNSQTGGLFGGATNSQTGGLFGGATNSQTGGLFGGATNSQTGGLFGGATNSQTGGLFGGATNSQTGGLFGGATNSQTGGLFGGATNSQTGGLFGGATNSQTGGLFGGATNSQTGGLFGGATNSQTGGLFGGATNSQTGGLFGGATNSQTGGLFGGATNSQTGGLFGGATNSQTGGLFGGATNSQTGGLFGGATNSQTGGLFGGATNSQT
# notes: also called thioflavin-T-positive, proline-free variant of prf.GLFG_(52 × 12)
# B2: Atto488-coupled GLLG//L_(52 × 12) (other)
# chain: GSGLLGNTGLAPAGGLLGNTQLQQGGGLLGQPQLTQGGGLLGQTGLTTGGGLLGGATLTAPGGLLGGGGLNPTGGLLGGNNLQQTGGLLGQGTLQTGGGLLGAPQLNQGGGLLGGGTLTTGGGLLGANTLTGGGGLLGGPSLPTTAGLLGSNNLTTGGGLLGQPALTNNGGLLGGQTLNQASGLLGANNLPPTNGLLGNNNLPQTAGLLGGATLTGNTGLLGGANLTGGGGLLGNNTLNPTGGLLGATNLAGGGGLLGGGALTGGGGLLGGGNLQTGGGLLGTANLTTAGGLLGGGNLQPQNGLLGNNNLPATGGLLGQTNLAAPQGLLGGTNLNAASGLLGQKPLSANGVLTKPNEKNLCYAISNGTDFCIFELALTQRKLVKAGQLKPGAQAGGLLGQPALNTQGGLLGGGGLATTPGLLGGAQLNTTGGLLGGQNLQAGGGLLGAPNLAAATGLLGAGNLNTQGGLLGAKPLATGGGLLGQPALTQAGGLLGNTALPAGGGLLGGATLTPGGGLLGGNTLATGGGLLGGNTLGATGGLLGGQQLNNQGGLLGNTNLNTGGGLLGGATLTTGGGLLGGSTLATGGGLLGGASLPAAGGLLGGAALQQNSGLLGGATLGQTGGLLGGATLQQGGGLLGQTALNPGGGLLGAANLTTQPGLLGGNNLAATTSC
# modifications: Atto488 (coupled)
# Key:
# [1] = target: wild-type Tetrahymena thermophila MacNup98A (Mac98A) FG domain (Tetrahymena thermophila); experiment: partition of fluorescent probes into FG particles (confocal laser scanning microscopy); FG particles mixed with permeation probes (2 μM Alexa488-labelled NTF2 and 10 μM mCherry in assay buffer, 15 μl + 15 μl); 20 mM NaPi pH 6.8, 150 mM NaCl, 5 mM DTT; 21 °C; partition coefficient = signal inside FG phase: signal in buffer
# [2] = target: the molecule itself; experiment: MAS NMR, 1H-13C cross-polarization of the FG phase; FG phase from u-[13C,15N]-labelled protein, 36 °C, 20 kHz MAS; cross-polarization against direct excitation
# prf.GLFG_(52 × 12) = target: T1, prf.GLFG_(52 × 12); experiment: partition of Atto488-coupled FG domains into FG particles (confocal laser scanning microscopy); 20 μM unlabelled prf.GLFG_(52 × 12) premixed with 0.5 μM Atto488-labelled species (GAFG: 3 μM); 20 mM NaPi pH 6.8, 150 mM NaCl, 5 mM DTT; 21 °C; apparent partition coefficient = Atto488 signal IN: OUT of the FG particles; conditions: both partners purified
# T1 construct: engineered from the Tetrahymena thermophila MacNup98A FG domain; plasmid pSNG064; Isotope-labelled (15N, 13C) for NMR; also called perfect repeat; source: E. coli, inclusion bodies, Ni(II) chelate column, tag cut off with bdSENP1 protease, lyophilized; not shown: His14-ZZ-scSUMO, N-terminal, cleaved
# T1 chain: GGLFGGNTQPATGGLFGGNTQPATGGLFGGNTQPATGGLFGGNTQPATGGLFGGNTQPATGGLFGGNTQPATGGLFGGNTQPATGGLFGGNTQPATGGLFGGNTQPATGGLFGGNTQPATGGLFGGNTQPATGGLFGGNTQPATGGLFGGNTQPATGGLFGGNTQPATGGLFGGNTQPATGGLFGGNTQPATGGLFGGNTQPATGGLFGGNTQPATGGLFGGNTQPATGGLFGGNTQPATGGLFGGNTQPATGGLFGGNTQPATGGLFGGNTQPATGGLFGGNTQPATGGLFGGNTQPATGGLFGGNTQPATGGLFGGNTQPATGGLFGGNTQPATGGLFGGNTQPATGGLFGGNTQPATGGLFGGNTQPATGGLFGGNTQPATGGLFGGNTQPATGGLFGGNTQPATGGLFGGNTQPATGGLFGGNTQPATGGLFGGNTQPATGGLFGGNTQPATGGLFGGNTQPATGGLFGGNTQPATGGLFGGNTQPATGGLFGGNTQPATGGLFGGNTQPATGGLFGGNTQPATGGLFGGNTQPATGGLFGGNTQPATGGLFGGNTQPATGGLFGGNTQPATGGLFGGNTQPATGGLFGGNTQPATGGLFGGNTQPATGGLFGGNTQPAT
molecule,measurement,setting,value
nuclear transport receptor NTF2 (labelled with Alexa Fluor 488) (from UniProt P61970 1-127) (natural protein),partition coefficient,[1],2000
B1,binding result,[2],binds
B2,partition coefficient,prf.GLFG_(52 × 12),110

# Reference: paper PMC8938434, “Atomic resolution dynamics of cohesive interactions in phase-separated Nup98 FG domains” (Nature Communications, 2022)
